This passage reports Kd results from patent US20200270362A1 (HARPOON THERAPEUTICS, published 2020).

Broadly, the Kd is the equilibrium constant for the complex coming apart.

The experiment deals with T1, TriTAC 75.
T1 construct: Single-chain MSLN/albumin/CD3 trispecific protein, 6xHis
The experiment can be described thus: Affinity measurement, method not stated; row 'Kd huCD3E' (faint print).

T1 sequence (chain, as listed by the source): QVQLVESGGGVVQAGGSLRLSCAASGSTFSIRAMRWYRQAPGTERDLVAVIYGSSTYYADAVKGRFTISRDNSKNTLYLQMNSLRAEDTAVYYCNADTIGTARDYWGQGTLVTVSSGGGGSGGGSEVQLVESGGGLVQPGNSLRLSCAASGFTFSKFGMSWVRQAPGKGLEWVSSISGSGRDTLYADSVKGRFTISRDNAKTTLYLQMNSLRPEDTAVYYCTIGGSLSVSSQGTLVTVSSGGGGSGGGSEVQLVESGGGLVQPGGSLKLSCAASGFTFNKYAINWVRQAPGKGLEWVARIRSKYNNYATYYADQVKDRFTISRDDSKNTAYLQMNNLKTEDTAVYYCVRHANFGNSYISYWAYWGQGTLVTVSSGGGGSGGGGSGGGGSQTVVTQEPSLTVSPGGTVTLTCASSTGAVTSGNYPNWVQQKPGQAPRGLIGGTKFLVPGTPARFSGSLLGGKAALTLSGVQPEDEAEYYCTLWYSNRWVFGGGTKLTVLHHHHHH

B1: human CD3ε (receptor, UniProt P07766 23-126, looked up)
chain: DGNEEMGGITQTPYKVSISGTTVILTCPQYPGSEILWQHNDKNIGGDEDDKNIGSDEDHLSLKEFSELEQSGYYVCYPRGSKPEDANFYLYLRARVCENCMEMD
notes: also called human CD3c (so in the source)
Regarding B1, binding was put at a Kd of 10 nM.
